Data: patent publication US20220143148A1, “COMPOSITIONS AND METHODS FOR MODULATING CGRP SIGNALING TO REGULATE INTESTINAL INNATE LYMPHOID CELLS” (The Broad Institute, Inc., priority 2019, published 2022)

Tested on: small intestinal immune cells
Assay: Droplet-based scRNA-seq of small intestinal immune cells (LP and PP), OVA vs PBS, clustering and differential expression
Type: in vivo, mouse
Settings: PP
Description: To comprehensively characterize small intestinal immune cells, Applicants generated scRNA-Seq profiles for 58,067 immune cells collected from lamina propria (LP) and Peyer's patch (PP) regions at steady state and after induction of a type 2 inflammatory reaction to ovalbumin (OVA) (Brandt et al., 2003) (FIGS. 1A and 8A). To ensure sufficient representation of rare cells, Applicants combined a normalization strategy—removing by flow sorting either a portion of IgD+ naïve B cells, which are the most abundant cell type in PPs, or all CD19+ and CD3+ T cells (FIG. 8B, Methods)—with profiling of a sufficiently large number of cells number (P>0.99 to recover at least 15 cells from each cluster, Methods) by massively parallel scRNA-seq (Haber et al., 2017) (Methods). Applicants obtained 36,797 and 21,270 high quality cells passing initial filtering (Methods) from PP and LP regions, respectively.
Overall, Applicants annotated 27 cell subsets across the two compartments, spanning T cells, B cells, ILCs, dendritic cells (DCs), myeloid cells and stromal cells, in frequencies ranging from 0.07% to 14%. Briefly, Applicants first partitioned the cells from the PP regions by unsupervised clustering (Methods) into 46 clusters, retained the 97% of cells that were robustly assigned cell identities in each cluster (Methods), assigned the cells from the LP regions to the 46 clusters using a classifier (Methods), and visualized the data with scvis (Ding et al., 2018), a deep generative model-based method (FIGS. 1B and 8C, Methods). Next, Applicants identified genes that were differentially expressed between the cells in each cluster and the remaining cells (Table 1, Methods), as well as between pairs of clusters (Table 2), to elucidate identities of similar cell types/states. Applicants excluded from downstream analysis clusters mostly consisting of contaminants from epithelium, likely doublets, or cells with a small number of Unique Molecular Identifiers (UMIs) (FIGS. 1C and 8D), or lacking distinct markers (Methods). Altogether, Applicants retained 27 clusters spanning 85% of the cells and each associated with distinct marker genes (FIG. 8E, Methods).
To induce allergic reaction to OVA, 6 to 7 weeks old mice were sensitized twice, two weeks apart, with 50 μg of OVA plus 1 mg of aluminum potassium sulfate adjuvant via intraperitoneal injection. Two weeks later, mice were orally administered with 50 mg of OVA on every other day for a total of five times. 1 μg of α-CGRP peptide was administered simultaneously when indicated. Mice were deprived of food for 3-4 hours in cages with wood chip bedding for limiting antigen degradation in the stomach before each intragastric challenge.
Isolation of cells from Peyer's patches (PPs). Peyer's patches (PPs) were carefully dissected from the small intestine under a stereo microscope using a fine scissor, pierced once with a fine forcep. Tissues were digested in freshly made digestion buffer (RPMI-1640 containing 100 μg/ml Liberase™ and 50 μg/ml DNase I at 37° C. on a roto-mixer. After 15 min, tissues were very gently mixed using a 1 ml pipette. The supernatant was collected and added to ice-cold MACS buffer (pH 7.4; PBS plus 2% FCS and 2 mM EDTA). Pre-warmed (37° C.) fresh digestion buffer was added to the remaining tissues. After rotation at 37° C. for 15 min, the mixture was vigorously mixed using a 1 ml pipette for 1 min. Supernatants from the two steps were combined and passed through 70 μm filters and stained for FACS (below).
Isolation of cells from the lamina propria (LP). The small intestines were opened longitudinally and washed in ice-cold PBS. For scRNA-seq, roughly 0.5 cm of fragments from each of the distal, middle and proximal regions without visible PPs were collected. Epithelial cells were dissociated by tissue rotation in pre-warmed (37° C.) PBS containing 10 mM EDTA at 37° C. for 15 min, followed by additional incubation on ice for 15 min. Tissues were then shaken vigorously. […]

B1: OVA (protein, UniProt P01012 2-386, looked up)
Ovalbumin: GSIGAASMEFCFDVFKELKVHHANENIFYCPIAIMSALAMVYLGAKDSTRTQINKVVRFDKLPGFGDSIEAQCGTSVNVHSSLRDILNQITKPNDVYSFSLASRLYAEERYPILPEYLQCVKELYRGGLEPINFQTAADQARELINSWVESQTNGIIRNVLQPSSVDSQTAMVLVNAIVFKGLWEKAFKDEDTQAMPFRVTEQESKPVQMMYQIGLFRVASMASEKMKILELPFASGTMSMLVLLPDEVSGLEQLESIINFEKLTEWTSSNVMEERKIKVYLPRMKMEEKYNLTSVLMAMGITDVFSSSANLSGISSAESLKISQAVHAAHAEINEAGREVVGSAEAGVDAASVSEEFRADHPFLFCIKHIATNAVLFFGRCVSP
Cluster ID 8, OVA vs PBS
  Fosl2 LN (average fold change): −0.358
  Ftl1 LN (average fold change): −0.171
  Gadd45b LN (average fold change): −0.563
  Gimap1 LN (average fold change): 0.283
  Gimap6 LN (average fold change): 0.272
  Gimap9 LN (average fold change): 0.367
  Gnai2 LN (average fold change): −0.261
  Gramd1a LN (average fold change): 0.460
  Gramd3 LN (average fold change): −0.502
  Gzma LN (average fold change): 0.340
  H2-K1 LN (average fold change): 0.192
  H3f3b LN (average fold change): −0.185
  Hcst LN (average fold change): 0.174
  Hist1h1c LN (average fold change): 0.586
  Hist1h1e LN (average fold change): 1.277
  Icam1 LN (average fold change): −0.819
  Id2 LN (average fold change): 0.467
  Ier2 LN (average fold change): −0.235
  Ier5l LN (average fold change): −1.422
  Ifi203 LN (average fold change): 0.402
  Ifrd1 LN (average fold change): −0.708
  Igha LN (average fold change): 0.514
  Igkc LN (average fold change): 0.390
  Ikzf2 LN (average fold change): −0.467
  Il2rg LN (average fold change): −0.226
  Il16 LN (average fold change): 0.455
  Jun LN (average fold change): 0.210
  Jund LN (average fold change): −0.703
  Kdm2b LN (average fold change): −0.379
  Kdm6b LN (average fold change): −0.833
  Klf4 LN (average fold change): −0.524
  Klf6 LN (average fold change): 0.166
  Klrb1c LN (average fold change): 0.233
  Klrb1f LN (average fold change): 0.487
  Klrc1 LN (average fold change): 0.392
  Klrc2 LN (average fold change): 0.396
  Klrd1 LN (average fold change): 0.261
  Klre1 LN (average fold change): 0.295
  Klrk1 LN (average fold change): 0.213
  Lax1 LN (average fold change): 0.486
  Litaf LN (average fold change): −0.518
  Lmna LN (average fold change): −1.022
  Maff LN (average fold change): −0.445
  Mcpt1 LN (average fold change): 1.756
  Mir142hg LN (average fold change): −0.715
  Ms4a4b LN (average fold change): 0.271
  Ms4a6b LN (average fold change): 0.490
  Myl6 LN (average fold change): 0.199
  Nabp1 LN (average fold change): −0.167
  Ncr1 LN (average fold change): 0.265
  Ndel1 LN (average fold change): −0.337
  Neat1 LN (average fold change): 0.275
  Neurl3 LN (average fold change): −0.244
  Nfil3 LN (average fold change): 0.490
  Nfkb1 LN (average fold change): −0.244
  Nfkbia LN (average fold change): −0.579
  Nfkbid LN (average fold change): −1.010
  Nfkbie LN (average fold change): −0.483
  Nfkbiz LN (average fold change): −0.640
  Ninj1 LN (average fold change): −0.512
  Nkg7 LN (average fold change): 0.194
  Nr4a1 LN (average fold change): −0.415
  Nr4a2 LN (average fold change): −0.530
  Nr4a3 LN (average fold change): −0.808
  Odc1 LN (average fold change): −0.540
  P2ry10 LN (average fold change): −0.196
  Phlda1 LN (average fold change): −0.867
  Pim1 LN (average fold change): −0.358
  Pnrc1 LN (average fold change): −0.302
  Ppp1r15a LN (average fold change): −0.355
  Ppp1r16b LN (average fold change): −0.367
  Ppp3cc LN (average fold change): 0.528
  Prr7 LN (average fold change): −0.910
  Ptp4a2 LN (average fold change): −0.243
  Ptprcap LN (average fold change): 0.276
  Rab35 LN (average fold change): 0.478
  Rac2 LN (average fold change): 0.169
  Rel LN (average fold change): −0.595
  Rgs1 LN (average fold change): 0.795
  Rnf125 LN (average fold change): −0.483
  Rnf157 LN (average fold change): −0.362
  Rora LN (average fold change): −0.455
  Rrad LN (average fold change): −0.602
  Rsrp1 LN (average fold change): 0.318
  Samd9l LN (average fold change): 0.479
  Samsn1 LN (average fold change): −0.280
  Sh2d1a LN (average fold change): 0.388
  Sik1 LN (average fold change): −0.527
  Skil LN (average fold change): −0.410
  Sla LN (average fold change): 0.486
  Slfn2 LN (average fold change): 0.342
  Sp100 LN (average fold change): 0.330
  Taf10 LN (average fold change): −0.372
  Tfam LN (average fold change): −0.555
  Tgif1 LN (average fold change): −0.580
  Tm6sf1 LN (average fold change): 0.360
  Traf1 LN (average fold change): −0.355
  Tsc22d3 LN (average fold change): 0.472
  Tuba4a LN (average fold change): −0.361
  Txndc5 LN (average fold change): 0.592
  Txnip LN (average fold change): 1.190
  Ube2s LN (average fold change): −0.248
  VgIl4 LN (average fold change): −0.452
  Vps37b LN (average fold change): −0.178
  Zc3h12a LN (average fold change): −0.680
  Zfp36l2 LN (average fold change): 0.382
  Zfp512 LN (average fold change): 0.523
Cluster ID 9
  AC125149.3 percentage of expressing cells in OVA-treated group: 0.619
  Actg1 percentage of expressing cells in OVA-treated group: 1
  Apobec1 percentage of expressing cells in OVA-treated group: 0.86
  Basp1 percentage of expressing cells in OVA-treated group: 0.871
  Cdk1 percentage of expressing cells in OVA-treated group: 0.478
  Cks1brt percentage of expressing cells in OVA-treated group: 0.262
  Ddit4 percentage of expressing cells in OVA-treated group: 0.241
  Eif2ak3 percentage of expressing cells in OVA-treated group: 0.384
  Hspa8 percentage of expressing cells in OVA-treated group: 0.995
  Igha percentage of expressing cells in OVA-treated group: 0.566
  Ighg3 percentage of expressing cells in OVA-treated group: 0.211
  Il2 percentage of expressing cells in OVA-treated group: 0.244
  Lnx2 percentage of expressing cells in OVA-treated group: 0.191
  Malat1 percentage of expressing cells in OVA-treated group: 1
  Mcpt1 percentage of expressing cells in OVA-treated group: 0.156
  Narf percentage of expressing cells in OVA-treated group: 0.441
  Nme2 percentage of expressing cells in OVA-treated group: 0.4
  Rsrp1 percentage of expressing cells in OVA-treated group: 0.796
  Tsc22d3 percentage of expressing cells in OVA-treated group: 0.669
  Tubb5 percentage of expressing cells in OVA-treated group: 0.966
  Uba52 percentage of expressing cells in OVA-treated group: 0.996
  Ubb percentage of expressing cells in OVA-treated group: 0.998
  Wdr89 percentage of expressing cells in OVA-treated group: 0.993
  Zfp36l2 percentage of expressing cells in OVA-treated group: 0.758
Cluster ID 9, OVA vs PBS
  AC125149.3 LN (average fold change): 0.342
  Actg1 LN (average fold change): −0.161
  Apobec1 LN (average fold change): 0.201
  Basp1 LN (average fold change): −0.559
  Cdk1 LN (average fold change): −0.396
  Cks1brt LN (average fold change): 1.033
  Ddit4 LN (average fold change): 0.791
  Eif2ak3 LN (average fold change): 0.581
  Hspa8 LN (average fold change): −0.426
  Igha LN (average fold change): 0.227
  Ighg3 LN (average fold change): 1.831
  Il2 LN (average fold change): 0.918
  Lnx2 LN (average fold change): 0.811
  Malat1 LN (average fold change): −0.269
  Mcpt1 LN (average fold change): 2.708
  Narf LN (average fold change): 0.449
  Nme2 LN (average fold change): 0.703
  Rsrp1 LN (average fold change): −0.274
